In US20200361992A1 (PROTAGONIST THERAPEUTICS, published 2020):
Starred links: 1 amine or outer side, 2 acyl side, 3 side chain; linkers in the order of their positions; H or OH if unused. Positions of bridges follow the written chain, without caps; N, C: chain ends. Non-standard residues stand in square brackets, D forms with d. Groups on a side chain read outwards from the residue. *: point of attachment. PEG12 = NCCOCCOCCOCCOCCOCCOCCOCCOCCOCCOCCOCCOCCC(=O)O; Phe(3,4-F2) = N[C@@H](Cc1ccc(F)c(F)c1)C(=O)O; Dip = N[C@H](C(=O)O)C(c1ccccc1)c1ccccc1; γGlu = O=C(O)[C@H](CCC(=O)[*:2])N[*:1]; Palmitoyl = CCCCCCCCCCCCCCCC(=O)*; β3hF = N[C@H](CC(=O)O)Cc1ccccc1; Isovaleryl = CC(C)CC(=O)*; Npc = nipecotic acid; βAla = NCCC(=O)O

T1: human ferroportin (SLC40A1) fused in frame with the GFP protein, stably expressed in HEK293 cells (human, UniProt Q9NP59 1-571)
T1 sequence (looked up): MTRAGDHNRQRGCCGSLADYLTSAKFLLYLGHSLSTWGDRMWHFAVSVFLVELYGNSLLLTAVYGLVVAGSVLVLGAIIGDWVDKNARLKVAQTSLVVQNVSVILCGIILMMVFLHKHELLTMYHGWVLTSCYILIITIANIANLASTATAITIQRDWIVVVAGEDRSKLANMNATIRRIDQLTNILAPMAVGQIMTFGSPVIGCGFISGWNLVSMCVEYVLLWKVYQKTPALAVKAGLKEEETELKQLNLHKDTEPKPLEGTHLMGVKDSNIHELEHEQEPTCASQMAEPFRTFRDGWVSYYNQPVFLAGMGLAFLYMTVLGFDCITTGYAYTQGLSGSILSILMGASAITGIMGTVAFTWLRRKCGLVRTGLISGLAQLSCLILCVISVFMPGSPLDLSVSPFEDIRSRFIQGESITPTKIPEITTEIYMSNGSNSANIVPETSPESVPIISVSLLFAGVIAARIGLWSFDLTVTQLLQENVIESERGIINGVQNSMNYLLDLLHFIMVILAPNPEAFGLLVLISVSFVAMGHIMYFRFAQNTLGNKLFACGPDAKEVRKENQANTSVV

T2: human ferroportin (SLC40A1) fused with GFP, stably expressed in HEK293 cells (human, UniProt Q9NP59 1-571)
T2 sequence (looked up): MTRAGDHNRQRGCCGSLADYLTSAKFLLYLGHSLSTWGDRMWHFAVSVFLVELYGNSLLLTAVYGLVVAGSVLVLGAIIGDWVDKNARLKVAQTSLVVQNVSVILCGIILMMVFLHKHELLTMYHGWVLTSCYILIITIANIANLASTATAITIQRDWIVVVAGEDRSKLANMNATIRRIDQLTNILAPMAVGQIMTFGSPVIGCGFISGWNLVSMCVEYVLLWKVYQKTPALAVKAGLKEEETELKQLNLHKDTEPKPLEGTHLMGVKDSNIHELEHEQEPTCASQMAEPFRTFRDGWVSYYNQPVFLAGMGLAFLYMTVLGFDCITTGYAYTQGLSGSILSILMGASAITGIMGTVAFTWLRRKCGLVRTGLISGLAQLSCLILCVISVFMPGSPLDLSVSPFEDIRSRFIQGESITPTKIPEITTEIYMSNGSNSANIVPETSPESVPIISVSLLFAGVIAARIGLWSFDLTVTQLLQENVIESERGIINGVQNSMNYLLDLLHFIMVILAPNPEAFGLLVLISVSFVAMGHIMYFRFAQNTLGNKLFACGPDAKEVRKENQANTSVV


These binders were tested against T1, human ferroportin (SLC40A1) fused in … (assay: cell-based or functional assay).

Row | Binder | FPN IC50
1 | Isovaleryl-DTHFPCIK([γGlu-Palmitoyl])FEPRSKGC-NH2 (disulfide 6-16; SMILES CCCCCCCCCCCCCCCC(=O)N[C@@H](CCC(=O)NCCCC[C@@H]1NC(=O)[C@H]([C@@H](C)CC)NC(=O)[C@@H](NC(=O)[C@@H]2CCCN2C(=O)[C@H](Cc2ccccc2)NC(=O)[C@H](Cc2c[nH]cn2)NC(=O)[C@@H](NC(=O)[C@H](CC(=O)O)NC(=O)CC(C)C)[C@@H](C)O)CSSC[C@@H](C(N)=O)NC(=O)CNC(=O)[C@H](CCCCN)NC(=O)[C@H](CO)NC(=O)[C@H](CCCNC(=N)N)NC(=O)[C@@H]2CCCN2C(=O)[C@H](CCC(=O)O)NC(=O)[C@H](Cc2ccccc2)NC1=O)C(=O)O) [Compd ID 201] | 9 nM
2 | Isovaleryl-DTHFPCIK([γGlu-Palmitoyl])FEPRSKC-NH2 (disulfide 6-15; SMILES CCCCCCCCCCCCCCCC(=O)N[C@@H](CCC(=O)NCCCC[C@@H]1NC(=O)[C@H]([C@@H](C)CC)NC(=O)[C@@H](NC(=O)[C@@H]2CCCN2C(=O)[C@H](Cc2ccccc2)NC(=O)[C@H](Cc2c[nH]cn2)NC(=O)[C@@H](NC(=O)[C@H](CC(=O)O)NC(=O)CC(C)C)[C@@H](C)O)CSSC[C@@H](C(N)=O)NC(=O)[C@H](CCCCN)NC(=O)[C@H](CO)NC(=O)[C@H](CCCNC(=N)N)NC(=O)[C@@H]2CCCN2C(=O)[C@H](CCC(=O)O)NC(=O)[C@H](Cc2ccccc2)NC1=O)C(=O)O) [Compd ID 202] | 11 nM
3 | Isovaleryl-DTHFPCIK([γGlu-Palmitoyl])FEPRSC-NH2 (disulfide 6-14; SMILES CCCCCCCCCCCCCCCC(=O)N[C@@H](CCC(=O)NCCCC[C@@H]1NC(=O)[C@H]([C@@H](C)CC)NC(=O)[C@@H](NC(=O)[C@@H]2CCCN2C(=O)[C@H](Cc2ccccc2)NC(=O)[C@H](Cc2c[nH]cn2)NC(=O)[C@@H](NC(=O)[C@H](CC(=O)O)NC(=O)CC(C)C)[C@@H](C)O)CSSC[C@@H](C(N)=O)NC(=O)[C@H](CO)NC(=O)[C@H](CCCNC(=N)N)NC(=O)[C@@H]2CCCN2C(=O)[C@H](CCC(=O)O)NC(=O)[C@H](Cc2ccccc2)NC1=O)C(=O)O) [Compd ID 203] | 15 nM
4 | Isovaleryl-DTHFPCIK([γGlu-Palmitoyl])FEPC-NH2 (disulfide 6-12; SMILES CCCCCCCCCCCCCCCC(=O)N[C@@H](CCC(=O)NCCCC[C@@H]1NC(=O)[C@H]([C@@H](C)CC)NC(=O)[C@@H](NC(=O)[C@@H]2CCCN2C(=O)[C@H](Cc2ccccc2)NC(=O)[C@H](Cc2c[nH]cn2)NC(=O)[C@@H](NC(=O)[C@H](CC(=O)O)NC(=O)CC(C)C)[C@@H](C)O)CSSC[C@@H](C(N)=O)NC(=O)[C@@H]2CCCN2C(=O)[C@H](CCC(=O)O)NC(=O)[C@H](Cc2ccccc2)NC1=O)C(=O)O) [Compd ID 205] | 64 nM
5 | Isovaleryl-DTHFPCIK([γGlu-Palmitoyl])FCK-NH2 (disulfide 6-10; SMILES CCCCCCCCCCCCCCCC(=O)N[C@@H](CCC(=O)NCCCC[C@@H]1NC(=O)[C@H]([C@@H](C)CC)NC(=O)[C@@H](NC(=O)[C@@H]2CCCN2C(=O)[C@H](Cc2ccccc2)NC(=O)[C@H](Cc2c[nH]cn2)NC(=O)[C@@H](NC(=O)[C@H](CC(=O)O)NC(=O)CC(C)C)[C@@H](C)O)CSSC[C@@H](C(=O)N[C@@H](CCCCN)C(N)=O)NC(=O)[C@H](Cc2ccccc2)NC1=O)C(=O)O) [Compd ID 210] | 60 nM

Results, then the binder that gave them:

Row | FPN IC50 | Binder
6 | 14 nM | Isovaleryl-DTHFPCIK([γGlu-Palmitoyl])FEPRC-NH2 (disulfide 6-13; SMILES CCCCCCCCCCCCCCCC(=O)N[C@@H](CCC(=O)NCCCC[C@@H]1NC(=O)[C@H]([C@@H](C)CC)NC(=O)[C@@H](NC(=O)[C@@H]2CCCN2C(=O)[C@H](Cc2ccccc2)NC(=O)[C@H](Cc2c[nH]cn2)NC(=O)[C@@H](NC(=O)[C@H](CC(=O)O)NC(=O)CC(C)C)[C@@H](C)O)CSSC[C@@H](C(N)=O)NC(=O)[C@H](CCCNC(=N)N)NC(=O)[C@@H]2CCCN2C(=O)[C@H](CCC(=O)O)NC(=O)[C@H](Cc2ccccc2)NC1=O)C(=O)O) [Compd ID 204]
7 | 267 nM | Isovaleryl-DTHFPCIK([γGlu-Palmitoyl])FEC-NH2 (disulfide 6-11; SMILES CCCCCCCCCCCCCCCC(=O)N[C@@H](CCC(=O)NCCCC[C@@H]1NC(=O)[C@H]([C@@H](C)CC)NC(=O)[C@@H](NC(=O)[C@@H]2CCCN2C(=O)[C@H](Cc2ccccc2)NC(=O)[C@H](Cc2c[nH]cn2)NC(=O)[C@@H](NC(=O)[C@H](CC(=O)O)NC(=O)CC(C)C)[C@@H](C)O)CSSC[C@@H](C(N)=O)NC(=O)[C@H](CCC(=O)O)NC(=O)[C@H](Cc2ccccc2)NC1=O)C(=O)O) [Compd ID 206]
8 | 64 nM | Isovaleryl-DTHFPCIK([γGlu-Palmitoyl])FC-NH2 (disulfide 6-10; SMILES CCCCCCCCCCCCCCCC(=O)N[C@@H](CCC(=O)NCCCC[C@@H]1NC(=O)[C@H]([C@@H](C)CC)NC(=O)[C@@H](NC(=O)[C@@H]2CCCN2C(=O)[C@H](Cc2ccccc2)NC(=O)[C@H](Cc2c[nH]cn2)NC(=O)[C@@H](NC(=O)[C@H](CC(=O)O)NC(=O)CC(C)C)[C@@H](C)O)CSSC[C@@H](C(N)=O)NC(=O)[C@H](Cc2ccccc2)NC1=O)C(=O)O) [Compd ID 207]

What follows are binders tested against T2, human ferroportin (SLC40A1) fused with … (assay: cell-based or functional assay).

Row | Binder | FPN IC50
9 | Isovaleryl-DTHF[Npc]CI[dK]FK([PEG12-Palmitoyl])[dK]C-NH2 (disulfide 6-12 (inferred)) [Compd ID 118] | 6 nM
10 | DTHXPCIKFKKC (Isovaleric acid-DTH-[Phe(4-COOH)-PCI-[(D)Lys]-F-[Lys(Peg11-Palm)]-[(D)Lys]-C-NH2) [Compd ID 120] | > 1000 nM
11 | Isovaleryl-DTH[Dip][Npc]CI[dK][Phe(3,4-F2)]K([PEG12-Palmitoyl])KC-NH2 (disulfide 6-12 (inferred)) [Compd ID 127] | 3 nM
12 | DTHXPCIKFKKX (Isovaleric acid-DTH-[Dpa]-PCI-[(D)Lys]-F-[Lys(Peg11-Palm)]-K-[N-Me-Cys]-NH2) [Compd ID 133] | 13.5 nM
13 | DTHXPCIKFKKX (Isovaleric acid-DTH-[Dpa]-PCI-[(D)Lys]-F-[Lys(Peg11-Palm)]-[(D)Lys]-[N-Me-Cys]-NH2) [Compd ID 134] | 22.5 nM
14 | DTHFPCIKFKPCK (Isovaleric acid-DTHFPCIKF-Lys[PEG11-Palm]-PCK-NH2) [Compd ID 9] | 15 nM
15 | DTHXPCIKFKXC (Isovaleric acid-DTH-[Dpa]-PCI-[(D)Lys]-F-[Lys(Peg11-Palm)]-[Orn]-C-NH2) [Compd ID 136] | 27 nM
16 | DTHXPCIKFKXX (Isovaleric acid-DTH-[Dpa]-PCI-[(D)Lys]-F-[Lys(Peg11-Palm)]-[Dap]-[Pen]-NH2) [Compd ID 140] | 51 nM
17 | Isovaleryl-DTH[Dip]PCI[βAla][β3hF]K([PEG12-Palmitoyl])[dK]C-NH2 (disulfide 6-12 (inferred)) [Compd ID 145] | 18 nM

Continued, values first:

Row | FPN IC50 | Binder
18 | 9 nM | DTHXPCIKFKKC (Isovaleric acid-DTH-[b-hPhe]-PCI-[(D)Lys]-F-[Lys(Peg11-Palm)]-[(D)Lys]-C-NH2) [Compd ID 121]
19 | 6 nM | DTHFPCIKFKC (Isovaleric acid-DTHFPCIKF-Lys[PEG11-Palm]-C-NH2) [Compd ID 8]
20 | 5 nM | DTHXPCIKXKKC (Isovaleric acid-DTH-[Dpa]-PCI-[(D)Lys]-[b-hPhe]-[Lys(Peg11-Palm)]-[(D)Lys]-C-NH2) [Compd ID 122]
21 | 204 nM | DTHXPCIKFKKC (Isovaleric acid-DTH-[a-MePhe]-PCI-[(D)Lys]-F-[Lys(Peg11-Palm)]-[(D)Lys]-C-NH2) [Compd ID 128]
22 | 169 nM | Isovaleryl-DIH[Dip]PCI[dK]FK([PEG12-Palmitoyl])[dK]C-NH2 (disulfide 6-12 (inferred)) [Compd ID 130]
23 | 14 nM | DTHXPCIKXKKC (Isovaleric acid-DTH-[Dpa]-PCI-[(D)Lys]-[Dpa]-[Lys(Peg11-Palm)]-[(D)Lys]-C-NH2) [Compd ID 131]
24 | 4 nM | DTHXPCIKFKKX (Isovaleric acid-DTH-[Dpa]-PCI-[(D)Lys]-F-[Lys(Peg11-Palm)]-[(D)Lys]-Pen-NH2) [Compd ID 132]
25 | 22 nM | DTHXPCIKFKC (Isovaleric acid-DTH-[Dpa]-PCI-[(D)Lys]-F-[Lys(Peg11-Palm)]-C-NH2) [Compd ID 135]
26 | 23 nM | DTHXPCIKFKXC (Isovaleric acid-DTH-[Dpa]-PCI-[(D)Lys]-F-[Lys(Peg11-Palm)]-[Dab]-C-NH2) [Compd ID 137]
27 | 20.5 nM | DTHXPCIKFKXC (Isovaleric acid-DTH-[Dpa]-PCI-[(D)Lys]-F-[Lys(Peg11-Palm)]-[b-hLys]-C-NH2) [Compd ID 138]
28 | 19.5 nM | DTHXPCIKFKKC (Isovaleric acid-DTH-[Dpa]-PCI-[(D)Lys]-F-[Lys(Peg11-Palm)]-[(D)Lys]-C-NH2) [Compd ID 139]
29 | 26.5 nM | DTHXPXIKFKXC (Isovaleric acid-DTH-[Dpa]-P-[Hcy]-I-[(D)Lys]-F-[Lys(Peg11-Palm)]-[Dap]-C-NH2) [Compd ID 141]
30 | 12 nM | DTHXPXIKFKXX (Isovaleric acid-DTH-[Dpa]-P-[Hcy]-I-[(D)Lys]-F-[Lys(Peg11-Palm)]-[Dap]-[Hcy]-NH2) [Compd ID 142]
31 | 18 nM | DTHXPCIKFKXX (Isovaleric acid-DTH-[Dpa]-PCI-[(D)Lys]-F-[Lys(Peg11-Palm)]-[Dap]-[Hcy]-NH2) [Compd ID 143]
32 | 32 nM | Isovaleryl-DTHFPCI[dK]FK([PEG12-Palmitoyl])CK-NH2 (disulfide 6-11 (inferred)) [Compd ID 144]
